{"source": "paper PMC4942575", "about": "“Plastid-nucleus communication involves calcium-modulated MAPK signalling”", "binders": {"B1": {"name": "LHCB promoter probe (dsDNA)", "DNA 1": "GACTAGAGACTGCCACATAAGAATAGTAAAGTTA", "DNA 2": "TAACTTTACTATTCTTATGTGGCAGTCTCTAGTC"}}, "key": {"MBP-ABI4 AAA": {"target": "MBP-ABI4 AAA (Arabidopsis thaliana, UniProt A0MES8 1-328, T111A;S114A;S130A)", "sequence (A0MES8 whole entry T111A/S114A/S130A)": "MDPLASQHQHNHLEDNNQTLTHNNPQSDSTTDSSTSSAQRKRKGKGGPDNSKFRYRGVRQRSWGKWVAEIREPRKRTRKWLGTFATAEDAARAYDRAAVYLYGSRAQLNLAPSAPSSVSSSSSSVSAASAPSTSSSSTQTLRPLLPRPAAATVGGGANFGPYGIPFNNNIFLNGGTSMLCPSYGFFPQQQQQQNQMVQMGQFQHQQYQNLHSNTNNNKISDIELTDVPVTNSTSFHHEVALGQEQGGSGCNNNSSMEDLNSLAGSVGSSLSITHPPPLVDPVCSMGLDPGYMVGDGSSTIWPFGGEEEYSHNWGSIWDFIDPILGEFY", "test": "EMSA; poly(dI/dC); 10 ul: 2 ug protein, 200 fmol biotin probe, 1 ul poly(dI/dC), 1x LightShift binding buffer, 5% glycerol; room temperature 20 min; 6% native PAGE; pH and salt not given", "details": "protein: recombinant; tags: MBP (pETMALc-H); label: 3' biotin"}, "MBP-ABI4 WT": {"target": "MBP-ABI4 WT (Arabidopsis thaliana, UniProt A0MES8 1-328)", "sequence (A0MES8 whole entry)": "as the sequence (A0MES8 whole entry T111A/S114A/S130A) above, with A111T, A114S, A130S counted along it", "test": "EMSA; poly(dI/dC); competed by excess unlabelled probe; 10 ul: 2 ug protein, 200 fmol biotin probe, 1 ul poly(dI/dC), 1x LightShift binding buffer, 5% glycerol; room temperature 20 min; 6% native PAGE; pH and salt not given", "details": "protein: recombinant; tags: MBP (pETMALc-H); label: 3' biotin"}}}
{"binder": "B1", "values": [{"measurement": "binding result", "setting": "MBP-ABI4 AAA", "value": "no binding"}, {"measurement": "binding result", "setting": "MBP-ABI4 WT", "value": "binds"}]}
